Experimental data: publication PMC3386190, “The Rhoptry Proteins ROP18 and ROP5 Mediate Toxoplasma gondii Evasion of the Murine, But Not the Human, Interferon-Gamma Response” (PLoS Pathogens, 2012)

Target: the molecule itself
Assay: dynamic light scattering; 20 µM Irga6 with 10 mM GTP at 37°C in 50 mM Tris/5 mM MgCl2/2 mM DTT, in the presence or absence of 40 µM (His6)-MBP-tagged ROP5-CIII or (His6)-MBP; mean hydrodynamic radius over 35 minutes

B1: Recombinant Irga6 (residues 1-413) (natural protein)
chain: MGQLFSSPKSDENNDLPSSFTGYFKKFNTGRKIISQEILNLIELRMRKGNIQLTNSAISDALKEIDSSVLNVAVTGETGSGKSSFINTLRGIGNEEEGAAKTGVVEVTMERHPYKHPNIPNVVFWDLPGIGSTNFPPNTYLEKMKFYEYDFFIIISATRFKKNDIDIAKAISMMKKEFYFVRTKVDSDITNEADGKPQTFDKEKVLQDIRLNCVNTFRENGIAEPPIFLLSNKNVCHYDFPVLMDKLISDLPIYKRHNFMVSLPNITDSVIEKKRQFLKQRIWLEGFAADLVNIIPSLTFLLDSDLETLKKSMKFYRTVFGVDETSLQRLARDWEIEVDQVEAMIKSPAVFKPTDEETIQERLSRYIQEFCLANGYLLPKNSFLKEIFYLKYYFLDMVTEDAKTLLKEICLRN
notes: immunity-related GTPase Irga6, mouse, residues 1-413; a TEV cleavage site stands between the tags and the protein; source: recombinant (Lim et al., submitted)
B1: binds.
